Bridge positions count the residues as written; N and C are the ends. Square brackets hold non-standard residues; d marks the D form. Ends that are not written are not given here. * marks the point of attachment. mXylyl = xylyl linker from dibromoxylene joining the two cysteines; des‑NH2 = missing amino-terminal amine group; Phg = N[C@H](C(=O)O)c1ccccc1; Tle = CC(C)(C)[C@H](N)C(=O)O; Heptanoyl = CCCCCCC(=O)*
T1: tissue kallikrein KLK13 (R&D Systems) (human, UniProt Q9UKR3 17-277, limits assumed)
T1 sequence (looked up): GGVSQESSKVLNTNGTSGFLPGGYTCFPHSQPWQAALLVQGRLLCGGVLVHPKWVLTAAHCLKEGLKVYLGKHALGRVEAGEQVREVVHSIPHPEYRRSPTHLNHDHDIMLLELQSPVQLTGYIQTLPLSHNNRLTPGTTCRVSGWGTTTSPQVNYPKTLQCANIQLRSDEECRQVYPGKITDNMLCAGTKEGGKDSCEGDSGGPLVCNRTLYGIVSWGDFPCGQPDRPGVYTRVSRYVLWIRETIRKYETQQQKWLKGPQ

T2: Factor XIIa (Enzyme Research Laboratories) (human, UniProt P00748 20-615, limits assumed)
T2 sequence (looked up): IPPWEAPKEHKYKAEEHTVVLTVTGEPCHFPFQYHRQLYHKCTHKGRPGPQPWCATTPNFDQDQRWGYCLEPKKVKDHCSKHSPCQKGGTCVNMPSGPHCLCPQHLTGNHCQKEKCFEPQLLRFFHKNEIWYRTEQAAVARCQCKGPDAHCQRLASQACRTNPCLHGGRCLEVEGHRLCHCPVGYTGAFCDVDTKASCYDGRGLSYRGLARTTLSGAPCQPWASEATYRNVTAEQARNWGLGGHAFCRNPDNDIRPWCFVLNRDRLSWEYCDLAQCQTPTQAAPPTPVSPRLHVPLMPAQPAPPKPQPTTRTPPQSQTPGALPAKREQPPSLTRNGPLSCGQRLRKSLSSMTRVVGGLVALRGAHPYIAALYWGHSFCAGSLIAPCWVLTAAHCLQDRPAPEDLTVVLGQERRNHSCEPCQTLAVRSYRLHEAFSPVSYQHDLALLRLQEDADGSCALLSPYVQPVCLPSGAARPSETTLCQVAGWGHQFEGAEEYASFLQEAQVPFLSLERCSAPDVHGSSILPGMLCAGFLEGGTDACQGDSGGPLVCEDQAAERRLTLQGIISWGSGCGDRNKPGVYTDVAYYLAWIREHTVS

T3: Factor VIIa (Enzyme Research Laboratories) (human, UniProt P08709 61-466)
T3 sequence (looked up): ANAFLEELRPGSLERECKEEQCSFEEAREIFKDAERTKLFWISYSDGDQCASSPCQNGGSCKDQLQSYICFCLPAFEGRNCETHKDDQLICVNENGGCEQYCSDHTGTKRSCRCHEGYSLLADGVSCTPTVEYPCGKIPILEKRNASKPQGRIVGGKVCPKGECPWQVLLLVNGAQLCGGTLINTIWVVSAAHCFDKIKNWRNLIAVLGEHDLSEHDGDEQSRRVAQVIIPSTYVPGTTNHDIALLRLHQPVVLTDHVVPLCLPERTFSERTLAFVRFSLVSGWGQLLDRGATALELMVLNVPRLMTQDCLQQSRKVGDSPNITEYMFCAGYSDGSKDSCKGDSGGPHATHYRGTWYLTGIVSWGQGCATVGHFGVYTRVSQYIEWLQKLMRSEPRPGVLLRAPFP

B1: R2051 (peptide)
peptide: {des‑NH2}-CESICRV-NH2
modifications: linker 1-5 via mXylyl; not fully specified (residue 1); printed as [mXylyl(1,5)](des-NH2)C-ESICRV-NH2
B2: R2047 (peptide)
peptide: Ac-CASICRV-NH2
modifications: linker 1-5 via mXylyl; not fully specified (residue 2); printed as [mXylyl(1,5)]Ac-C-a-SICRV-NH2

The binders below were run against T4, Activated human plasma kallikrein (Enzyme Research Laboratories, HPKa 1303) (human, UniProt P03952 20-638) (assay: cell-based or functional assay).
T4 sequence (P03952 20-638 limits assumed): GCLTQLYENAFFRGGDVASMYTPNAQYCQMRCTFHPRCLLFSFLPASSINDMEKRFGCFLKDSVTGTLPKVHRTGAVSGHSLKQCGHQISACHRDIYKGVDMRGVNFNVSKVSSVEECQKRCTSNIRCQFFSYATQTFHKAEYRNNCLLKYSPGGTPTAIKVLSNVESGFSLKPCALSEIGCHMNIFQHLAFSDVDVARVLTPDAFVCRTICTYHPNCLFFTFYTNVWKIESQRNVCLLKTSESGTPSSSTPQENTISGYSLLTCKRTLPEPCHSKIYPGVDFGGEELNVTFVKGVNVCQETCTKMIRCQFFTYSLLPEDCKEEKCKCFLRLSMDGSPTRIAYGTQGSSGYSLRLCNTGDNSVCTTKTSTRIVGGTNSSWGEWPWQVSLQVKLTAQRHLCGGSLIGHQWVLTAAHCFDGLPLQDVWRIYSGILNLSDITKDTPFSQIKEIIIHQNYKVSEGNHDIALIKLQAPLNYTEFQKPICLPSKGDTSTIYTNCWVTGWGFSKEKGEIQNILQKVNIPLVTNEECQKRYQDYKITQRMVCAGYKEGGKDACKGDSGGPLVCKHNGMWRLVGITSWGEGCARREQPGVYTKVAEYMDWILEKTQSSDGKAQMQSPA

Avg. IC50 [nM]	Binder
0.501	MCESICRVLRYSE-NH2 (linker 2-6 via mXylyl) [R2004]
12.9	B1
17.4	B2
6.4	Ac-CAS[Phg]CR[Tle]-NH2 (linker 1-5 via mXylyl) [R2036]
24.2	Heptanoyl-CESICRV-NH2 (linker 1-5 via mXylyl) [R2041]

These binders were tested against plasmin (Enzyme Research Laboratories) (human, UniProt P00747 97-810, limits assumed) (assay: cell-based or functional assay).
Chain of plasmin (Enzyme Research Laboratories) (P00747 97-810 limits assumed): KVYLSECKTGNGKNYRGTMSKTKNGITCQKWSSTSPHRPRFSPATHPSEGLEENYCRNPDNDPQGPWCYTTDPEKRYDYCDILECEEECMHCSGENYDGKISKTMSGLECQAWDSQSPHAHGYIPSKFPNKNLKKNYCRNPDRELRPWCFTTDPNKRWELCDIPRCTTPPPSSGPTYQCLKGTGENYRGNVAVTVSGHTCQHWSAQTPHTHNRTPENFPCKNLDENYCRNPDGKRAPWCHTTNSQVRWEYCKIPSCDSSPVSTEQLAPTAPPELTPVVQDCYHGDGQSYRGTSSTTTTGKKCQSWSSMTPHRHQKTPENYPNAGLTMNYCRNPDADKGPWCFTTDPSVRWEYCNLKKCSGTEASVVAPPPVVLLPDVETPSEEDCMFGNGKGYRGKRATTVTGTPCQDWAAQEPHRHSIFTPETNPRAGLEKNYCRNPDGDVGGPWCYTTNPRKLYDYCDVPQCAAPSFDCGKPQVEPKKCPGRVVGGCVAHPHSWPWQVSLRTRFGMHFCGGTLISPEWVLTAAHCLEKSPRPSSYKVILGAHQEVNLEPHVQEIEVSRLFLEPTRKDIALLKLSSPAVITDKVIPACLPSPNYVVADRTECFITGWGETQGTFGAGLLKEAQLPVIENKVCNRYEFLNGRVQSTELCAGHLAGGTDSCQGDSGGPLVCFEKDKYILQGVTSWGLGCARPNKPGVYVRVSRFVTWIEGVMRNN

Plasmin IC50 [nM]	Binder
5800	MCNYWSPWTECSA-NH2 (cysteine pairing not given here) [R2104]
> 100000	B1
> 100000	B2
> 19500	Ac-CAS[Phg]CR[Tle]-NH2 (linker 1-5 via mXylyl) [R2036]
> 100000	Heptanoyl-CESICRV-NH2 (linker 1-5 via mXylyl) [R2041]

These binders were tested against thrombin (Enzyme Research Laboratories) (human, UniProt P00734 328-622) (assay: cell-based or functional assay).

Thrombin IC50 [nM]	Binder
> 100000	MCNYWSPWTECSA-NH2 (cysteine pairing not given here) [R2104]
> 100000	B1
> 100000	B2
> 100000	Ac-CAS[Phg]CR[Tle]-NH2 (linker 1-5 via mXylyl) [R2036]
> 100000	Heptanoyl-CESICRV-NH2 (linker 1-5 via mXylyl) [R2041]

The binders below were run against T1, tissue kallikrein KLK13 (R&D Systems) (assay: cell-based or functional assay).

KLK13 IC50 [nM]	Binder
> 100000	MCNYWSPWTECSA-NH2 (cysteine pairing not given here) [R2104]
> 100000	B1
> 100000	B2
> 100000	Ac-CAS[Phg]CR[Tle]-NH2 (linker 1-5 via mXylyl) [R2036]
> 100000	Heptanoyl-CESICRV-NH2 (linker 1-5 via mXylyl) [R2041]

These binders were tested against T2, Factor XIIa (Enzyme Research …) (assay: cell-based or functional assay).

Factor XIIa IC50 [nM]	Binder
> 100000	MCNYWSPWTECSA-NH2 (cysteine pairing not given here) [R2104]
> 100000	B1
> 100000	B2
> 100000	Ac-CAS[Phg]CR[Tle]-NH2 (linker 1-5 via mXylyl) [R2036]
> 100000	Heptanoyl-CESICRV-NH2 (linker 1-5 via mXylyl) [R2041]

Target: T4, Activated human plasma kallikrein …
Experiment: cell-based or functional assay
Remark: another data set of the same source

Avg. IC50 [nM]	Binder
0.501	MCESICRVLRYSE-NH2 (linker 2-6 via mXylyl) [R2004]
3.1	MCNYWSPWTECSR-NH2 (linker 2-11 via mXylyl) [R2003]

Target: T4, Activated human plasma kallikrein …
Experiment: cell-based or functional assay
Remark: another data set of the same source

Avg. IC50 [nM]	Binder
3.4	MCNYWSPWTECSA-NH2 (cysteine pairing not given here) [R2104]
3.1	MCNYWSPWTECSR-NH2 (linker 2-11 via mXylyl) [R2003]

These binders were tested against Factor XIa (Enzyme Research Laboratories) (human, UniProt P03951 19-625) (assay: cell-based or functional assay).
Chain of Factor XIa (Enzyme Research Laboratories) (P03951 19-625 limits assumed): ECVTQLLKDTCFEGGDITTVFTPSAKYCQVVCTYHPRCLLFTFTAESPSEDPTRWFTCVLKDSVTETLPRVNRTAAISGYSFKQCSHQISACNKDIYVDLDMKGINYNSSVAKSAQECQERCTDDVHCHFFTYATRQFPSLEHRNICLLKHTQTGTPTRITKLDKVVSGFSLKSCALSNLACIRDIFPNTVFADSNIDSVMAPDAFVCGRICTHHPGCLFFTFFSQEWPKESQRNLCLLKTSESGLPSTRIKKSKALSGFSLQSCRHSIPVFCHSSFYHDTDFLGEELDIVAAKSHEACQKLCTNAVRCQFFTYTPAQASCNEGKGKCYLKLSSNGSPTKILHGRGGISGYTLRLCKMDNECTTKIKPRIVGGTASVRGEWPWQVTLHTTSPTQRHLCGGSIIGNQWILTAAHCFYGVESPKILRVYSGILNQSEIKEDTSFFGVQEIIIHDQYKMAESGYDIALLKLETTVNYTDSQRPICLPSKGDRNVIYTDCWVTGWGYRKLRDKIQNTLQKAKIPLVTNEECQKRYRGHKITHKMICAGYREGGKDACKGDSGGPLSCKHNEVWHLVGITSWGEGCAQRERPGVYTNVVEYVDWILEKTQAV

Factor XIa IC50 [nM]	Binder
> 5000	MCNYWSPWTECSA-NH2 (cysteine pairing not given here) [R2104]
> 8300	B1
> 13800	B2
> 4800	Ac-CAS[Phg]CR[Tle]-NH2 (linker 1-5 via mXylyl) [R2036]
> 5400	Heptanoyl-CESICRV-NH2 (linker 1-5 via mXylyl) [R2041]

What follows are binders tested against mouse plasma kallikrein (R&D Systems) (mouse, UniProt P26262 20-638) (assay: cell-based or functional assay).
Chain of mouse plasma kallikrein (R&D Systems) (P26262 20-638 limits assumed): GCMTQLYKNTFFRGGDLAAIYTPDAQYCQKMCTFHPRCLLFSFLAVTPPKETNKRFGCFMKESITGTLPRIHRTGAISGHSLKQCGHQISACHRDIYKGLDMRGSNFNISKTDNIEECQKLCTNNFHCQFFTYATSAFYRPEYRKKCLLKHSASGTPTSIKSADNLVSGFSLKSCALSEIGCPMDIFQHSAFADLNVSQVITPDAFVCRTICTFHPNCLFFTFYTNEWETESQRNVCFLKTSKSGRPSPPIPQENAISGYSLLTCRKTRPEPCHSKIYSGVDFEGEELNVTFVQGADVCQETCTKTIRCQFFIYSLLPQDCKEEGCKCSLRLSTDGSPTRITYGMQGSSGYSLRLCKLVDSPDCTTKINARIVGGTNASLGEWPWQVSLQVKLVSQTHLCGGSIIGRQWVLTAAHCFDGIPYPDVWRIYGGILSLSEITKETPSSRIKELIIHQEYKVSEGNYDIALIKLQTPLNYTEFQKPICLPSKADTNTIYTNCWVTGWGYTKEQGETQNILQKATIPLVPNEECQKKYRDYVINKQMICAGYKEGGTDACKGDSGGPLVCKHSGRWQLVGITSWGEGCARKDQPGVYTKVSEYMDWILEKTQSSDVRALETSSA

Mouse Kallikrein IC50 [nM]	Binder
11.2	MCNYWSPWTECSA-NH2 (cysteine pairing not given here) [R2104]
19.3	B1
36.7	B2
12.8	Ac-CAS[Phg]CR[Tle]-NH2 (linker 1-5 via mXylyl) [R2036]
191	Heptanoyl-CESICRV-NH2 (linker 1-5 via mXylyl) [R2041]

Target: T4, Activated human plasma kallikrein …
Experiment: cell-based or functional assay
Remark: another data set of the same source

Human Kallikrein IC50 [nM]	Binder
3.4	MCNYWSPWTECSA-NH2 (cysteine pairing not given here) [R2104]
12.9	B1
32.3	B2
6.4	Ac-CAS[Phg]CR[Tle]-NH2 (linker 1-5 via mXylyl) [R2036]
24.2	Heptanoyl-CESICRV-NH2 (linker 1-5 via mXylyl) [R2041]

Each binder was assayed against T3, Factor VIIa (Enzyme Research …) (assay: cell-based or functional assay).

Factor VIIa IC50 [nM]	Binder
> 100000	MCNYWSPWTECSA-NH2 (cysteine pairing not given here) [R2104]
> 100000	B1
> 100000	B2
> 100000	Ac-CAS[Phg]CR[Tle]-NH2 (linker 1-5 via mXylyl) [R2036]
> 17900	Heptanoyl-CESICRV-NH2 (linker 1-5 via mXylyl) [R2041]

What follows are binders tested against Factor Xa (Enzyme Research Laboratories) (human, UniProt P00742 41-488, limits assumed) (assay: cell-based or functional assay).
Chain of Factor Xa (Enzyme Research Laboratories) (P00742 41-488 limits assumed): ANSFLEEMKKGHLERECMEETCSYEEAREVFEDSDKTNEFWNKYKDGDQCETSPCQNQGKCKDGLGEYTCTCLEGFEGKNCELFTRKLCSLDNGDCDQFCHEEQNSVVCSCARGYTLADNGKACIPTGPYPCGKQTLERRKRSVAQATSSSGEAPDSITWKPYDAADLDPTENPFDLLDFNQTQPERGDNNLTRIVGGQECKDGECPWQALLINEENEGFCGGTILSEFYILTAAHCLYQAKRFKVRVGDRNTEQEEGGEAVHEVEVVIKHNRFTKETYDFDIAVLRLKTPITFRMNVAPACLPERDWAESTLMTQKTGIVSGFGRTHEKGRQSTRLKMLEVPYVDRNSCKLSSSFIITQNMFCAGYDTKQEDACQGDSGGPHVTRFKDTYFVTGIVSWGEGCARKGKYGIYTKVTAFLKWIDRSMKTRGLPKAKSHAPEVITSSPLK

Factor Xa IC50 [nM]	Binder
> 100000	MCNYWSPWTECSA-NH2 (cysteine pairing not given here) [R2104]
> 100000	B1
> 100000	B2
> 7000	Ac-CAS[Phg]CR[Tle]-NH2 (linker 1-5 via mXylyl) [R2036]
> 7000	Heptanoyl-CESICRV-NH2 (linker 1-5 via mXylyl) [R2041]
